# Results from the supplement of paper PMC6379048.
# Key:
# Assay in all cases: Kd (EC50 corrected by depletion factor)
# MRPS31 = MRPS31 (UniProt Q92665)
# How it was run: (§1)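 Kd was calculated as EC50, taken from a four-parameter log-logistic fit, multiplied by a protein-dependent depletion factor. The assay used HEK293-FT lysate (2.5 mg protein/well) pre-incubated for 1 h at 4°C with free RNA oligos (0 nM to 30 μM), then incubated for 30 min at 4°C with the matching oligos bound through a 5′-amino-C6 linker to NHS-Sepharose beads. Bound proteins were measured by label-free LC-MS/MS and normalised to the control.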
# ZFP36L1 = biological target: T1, ZFP36L1 (UniProt Q07352)
# T1 sequence: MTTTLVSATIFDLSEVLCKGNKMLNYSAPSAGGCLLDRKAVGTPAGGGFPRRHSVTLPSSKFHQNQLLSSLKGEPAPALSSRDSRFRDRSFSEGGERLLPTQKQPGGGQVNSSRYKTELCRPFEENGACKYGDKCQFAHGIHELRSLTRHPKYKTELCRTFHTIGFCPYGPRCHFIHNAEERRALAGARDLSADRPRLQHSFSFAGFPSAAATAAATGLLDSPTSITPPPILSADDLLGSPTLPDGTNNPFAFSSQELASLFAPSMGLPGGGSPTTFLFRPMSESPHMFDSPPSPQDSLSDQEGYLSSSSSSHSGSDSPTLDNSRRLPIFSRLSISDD
# How it was run: as §1
# RPS17 = RPS17 (UniProt P08708)
# How it was run: as §1
# SYNCRIP = biological target: T2, SYNCRIP (UniProt O60506)
# T2 sequence: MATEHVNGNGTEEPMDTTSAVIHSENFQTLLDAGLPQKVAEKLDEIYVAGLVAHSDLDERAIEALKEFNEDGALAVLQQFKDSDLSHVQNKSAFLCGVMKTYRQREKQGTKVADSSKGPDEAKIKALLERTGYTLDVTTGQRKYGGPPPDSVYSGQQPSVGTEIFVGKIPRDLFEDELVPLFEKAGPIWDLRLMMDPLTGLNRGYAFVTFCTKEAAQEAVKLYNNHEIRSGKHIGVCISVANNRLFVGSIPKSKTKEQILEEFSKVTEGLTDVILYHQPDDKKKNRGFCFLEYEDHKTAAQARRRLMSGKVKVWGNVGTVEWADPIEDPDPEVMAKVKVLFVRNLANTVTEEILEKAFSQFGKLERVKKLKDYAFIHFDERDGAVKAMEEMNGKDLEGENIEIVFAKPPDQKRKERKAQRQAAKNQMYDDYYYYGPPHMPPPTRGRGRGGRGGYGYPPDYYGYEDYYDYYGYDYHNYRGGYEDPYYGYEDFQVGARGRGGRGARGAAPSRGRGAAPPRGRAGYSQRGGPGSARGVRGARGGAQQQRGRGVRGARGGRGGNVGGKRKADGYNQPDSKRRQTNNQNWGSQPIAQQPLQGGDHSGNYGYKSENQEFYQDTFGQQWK
# How it was run: as §1
# GPALPP1 = biological target: T3, GPALPP1 (UniProt Q8IXQ4)
# T3 sequence: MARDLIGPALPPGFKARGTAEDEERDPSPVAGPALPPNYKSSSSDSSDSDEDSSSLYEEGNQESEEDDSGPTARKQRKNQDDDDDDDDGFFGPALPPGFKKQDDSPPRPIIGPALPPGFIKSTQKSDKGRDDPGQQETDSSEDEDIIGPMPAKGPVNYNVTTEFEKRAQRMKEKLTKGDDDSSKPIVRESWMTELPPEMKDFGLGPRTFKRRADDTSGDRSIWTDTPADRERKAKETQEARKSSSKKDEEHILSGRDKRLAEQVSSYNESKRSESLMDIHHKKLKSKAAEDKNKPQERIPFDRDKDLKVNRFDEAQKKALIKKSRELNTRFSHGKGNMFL
# How it was run: as §1
# AASS = biological target: T4, AASS (UniProt Q9UDR5)
# T4 sequence: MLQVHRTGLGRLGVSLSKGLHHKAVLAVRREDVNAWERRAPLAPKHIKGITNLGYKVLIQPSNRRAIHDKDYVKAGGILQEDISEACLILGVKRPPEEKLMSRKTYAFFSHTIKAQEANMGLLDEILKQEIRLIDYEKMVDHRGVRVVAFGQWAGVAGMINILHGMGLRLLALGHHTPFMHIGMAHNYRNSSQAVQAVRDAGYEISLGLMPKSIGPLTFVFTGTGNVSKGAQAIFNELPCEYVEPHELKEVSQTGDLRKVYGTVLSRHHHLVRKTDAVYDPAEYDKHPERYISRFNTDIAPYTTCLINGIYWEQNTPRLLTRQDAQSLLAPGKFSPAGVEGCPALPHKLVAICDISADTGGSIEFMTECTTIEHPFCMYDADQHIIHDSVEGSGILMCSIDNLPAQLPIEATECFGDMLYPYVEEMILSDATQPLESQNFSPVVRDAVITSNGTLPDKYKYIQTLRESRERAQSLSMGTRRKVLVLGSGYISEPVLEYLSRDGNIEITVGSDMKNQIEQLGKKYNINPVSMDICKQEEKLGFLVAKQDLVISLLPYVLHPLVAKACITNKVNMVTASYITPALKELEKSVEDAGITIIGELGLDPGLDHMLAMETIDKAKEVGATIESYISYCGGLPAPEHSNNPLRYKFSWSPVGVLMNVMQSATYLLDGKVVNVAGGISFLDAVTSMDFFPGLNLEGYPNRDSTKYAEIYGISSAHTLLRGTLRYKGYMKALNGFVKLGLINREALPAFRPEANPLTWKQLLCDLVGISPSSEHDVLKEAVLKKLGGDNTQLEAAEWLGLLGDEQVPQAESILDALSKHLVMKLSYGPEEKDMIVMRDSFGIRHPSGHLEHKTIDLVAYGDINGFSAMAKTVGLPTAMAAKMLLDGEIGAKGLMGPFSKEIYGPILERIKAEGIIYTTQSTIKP
# How it was run: as §1
# MRPL43 = MRPL43 (UniProt Q8N983)
# How it was run: as §1
# PCBP2 = PCBP2 (UniProt Q15366)
# Sequence of PCBP2 (Q15366 whole entry): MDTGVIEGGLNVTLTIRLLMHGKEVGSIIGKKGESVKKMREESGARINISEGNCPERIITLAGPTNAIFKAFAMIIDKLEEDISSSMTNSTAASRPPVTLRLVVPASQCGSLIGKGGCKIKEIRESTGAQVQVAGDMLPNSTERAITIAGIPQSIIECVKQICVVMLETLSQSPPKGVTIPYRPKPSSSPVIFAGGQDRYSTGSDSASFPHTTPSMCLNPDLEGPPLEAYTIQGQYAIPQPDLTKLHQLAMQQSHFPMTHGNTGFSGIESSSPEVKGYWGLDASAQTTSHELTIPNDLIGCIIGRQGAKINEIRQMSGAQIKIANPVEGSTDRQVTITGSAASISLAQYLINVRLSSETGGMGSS
# How it was run: as §1
# RPS14 = RPS14 (UniProt P62263)
# How it was run: as §1
sequence,measurement,setting,value
UAUUUAU,Kd,MRPS31,52.4 nM
same,Kd,ZFP36L1,24.4 nM
AAUAAA,Kd,RPS17,126 nM
same,Kd,SYNCRIP,252 nM
same,Kd,GPALPP1,33 nM
same,Kd,AASS,1220 nM
CUGUCCU,Kd,MRPL43,40.4 nM
same,Kd,PCBP2,1240 nM
same,Kd,RPS14,126 nM
